The experiment addresses RhoA fused to LexA DNA-binding domain (yeast two hybrid) (human). The experiment can be described thus: yeast two hybrid, β-galactosidase activity.

B1: M2-6 (974-1024) fused to the VP16-activation domain (yeast two hybrid) (other)
chain: KLEKEEEISNLKAAFEKNINTERTLKTQAVNKLAEIMNRKDFKIDRKKANT
As for B1, the binding result is recorded as “no binding”.

B2: M2-9 (906-1004) fused to the VP16-activation domain (yeast two hybrid) (other)
chain: RGLLEEQYFELTQESKKAASRNRQEITDKDHTVSRLEEANSMLTKDIEILRRENEELTEKMKKAEEEYKLEKEEEISNLKAAFEKNINTERTLKTQAVN
As for B2, the binding result is given as “no binding”.

These data come from patent US6013499, “Rho target protein kinase p160” (Kirin Beer Kabushiki Kaisha, dated 2000).
